US20240400715A1 (VIBRANT PHARMA, published 2024)
Substitutions are numbered along the chain they refer to. Where “and” joins values, the source holds several entries; their conditions need not be identical. Equal entries are not always repeated.

B1: CEA-Knob+Hole-Fab (110) (bispecific antibody, human IgG4 S228P, kappa, F234A L235A)
chain: EVQLVESGGGFVQAGESLTLSCTSSTLTFTPYRMAWYRQAPGKQRDLVADISSGDGRTTNYADFAKGRFTISRDNIKNTVFLRMTNLKPEDTAVYYCNTFVSFVGIARSWGQGTQVTVSSESKYGPPCPPCPAPEAAGGPSVFLFPPKPKDTLMISRTPEVTCVVVDVSQEDPEVQFNWYVDGVEVHNAKTKPREEQFNSTYRVVSVLTVLHQDWLNGKEYKCKVSNKGLPSSIEKTISKAKGQPREPQVYTLPPCQEEMTKNQVSLWCLVKGFYPSDIAVEWESNGQPENNYKTTPPVLDSDGSFFLYSRLTVDKSRWQEGNVFSCSVMHEALHNHYTQKSLSLSL
heavy: ESKYGPPCPPCPAPEAAGGPSVFLFPPKPKDTLMISRTPEVTCVVVDVSQEDPEVQFNWYVDGVEVHNAKTKPREEQFNSTYRVVSVLTVLHQDWLNGKEYKCKVSNKGLPSSIEKTISKAKGQPREPQVCTLPPSQEEMTKNQVSLSCAVKGFYPSDIAVEWESNGQPENNYKTTPPVLDSDGSFFLVSRLTVDKSRWQEGNVFSCSVMHEALHNRFTQKSLSLSLGGGGSGGGGSEVKLLESGGGLVQPKGSLKLSCAASGFTFNTYAMNWVRQAPGKGLEWVARIRSKYNNYATYYADSVKDRFTISRDDSQSILYLQMNNLKTEDTAMYYCVRHGNFGNSYVSWFAYWGQGTLVTVSSASTKGPSVFPLAPCSRSTSESTAALGCLVKDYFPEPVTVSWNSGALTSGVHTFPAVLQSSGLYSLSSVVTVPSSSLGTKTYTCNVDHKPSNTKVDKRV
light: QAVVTQESALTTSPGETVTLTCRSSTGAVTTSNYANWVQEKPDHLFTGLIGGTNKRAPGVPARFSGSLIGDKAALTITGAQTEDEAIYFCALWYSNLWVFGGGTKVEIKRTVAAPSVFIFPPSDEQLKSGTASVVCLLNNFYPREAKVQWKVDNALQSGNSQESVTEQDSKDSTYSLSSTLTLSKADYEKHKVYACEVTHQGLSSPVTKSFNRGEC
notes: Anti-CD3 TA1 Fab + anti-CEA VHH C17 on human IgG4 knob-into-hole Fc; also called CEA-CD3 bispecific antibody 110
B2: Knob+CEA-Hole-Fab (111) (bispecific antibody, human IgG4 S228P, kappa, F234A L235A)
chain: ESKYGPPCPPCPAPEAAGGPSVFLFPPKPKDTLMISRTPEVTCVVVDVSQEDPEVQFNWYVDGVEVHNAKTKPREEQFNSTYRVVSVLTVLHQDWLNGKEYKCKVSNKGLPSSIEKTISKAKGQPREPQVYTLPPCQEEMTKNQVSLWCLVKGFYPSDIAVEWESNGQPENNYKTTPPVLDSDGSFFLYSRLTVDKSRWQEGNVFSCSVMHEALHNHYTQKSLSLSL
heavy: EVQLVESGGGFVQAGESLTLSCTSSTLTFTPYRMAWYRQAPGKQRDLVADISSGDGRTTNYADFAKGRFTISRDNIKNTVFLRMTNLKPEDTAVYYCNTFVSFVGIARSWGQGTQVTVSSESKYGPPCPPCPAPEAAGGPSVFLFPPKPKDTLMISRTPEVTCVVVDVSQEDPEVQFNWYVDGVEVHNAKTKPREEQFNSTYRVVSVLTVLHQDWLNGKEYKCKVSNKGLPSSIEKTISKAKGQPREPQVCTLPPSQEEMTKNQVSLSCAVKGFYPSDIAVEWESNGQPENNYKTTPPVLDSDGSFFLVSRLTVDKSRWQEGNVFSCSVMHEALHNRFTQKSLSLSLGGGGSGGGGSEVKLLESGGGLVQPKGSLKLSCAASGFTFNTYAMNWVRQAPGKGLEWVARIRSKYNNYATYYADSVKDRFTISRDDSQSILYLQMNNLKTEDTAMYYCVRHGNFGNSYVSWFAYWGQGTLVTVSSASTKGPSVFPLAPCSRSTSESTAALGCLVKDYFPEPVTVSWNSGALTSGVHTFPAVLQSSGLYSLSSVVTVPSSSLGTKTYTCNVDHKPSNTKVDKRV
light: B1 light
notes: Anti-CD3 TA1 Fab + anti-CEA VHH C17 on human IgG4 knob-into-hole Fc
B3: 311 (TA6), configuration of FIG. 1X (bispecific antibody, IgG4)
heavy: EVQLVQSGAEVKKPGASVKVSCKASGYTFTNYYIHWVRQAPGQGLEWIGWIYPGDGNTKYNEKFKGRATLTADTSTSTAYLELSSLRSEDTAVYYCARDSYSNYYFDYWGQGTLVTVSSASTKGPSVFPLAPCSRSTSESTAALGCLVKDYFPEPVTVSWNSGALTSGVHTFPAVLQSSGLYSLSSVVTVPSSSLGTKTYTCNVDHKPSNTKVDKRVESKYGPPCPPCPAPEAAGGPSVFLFPPKPKDTLMISRTPEVTCVVVDVSQEDPEVQFNWYVDGVEVHNAKTKPREEQFNSTYRVVSVLTVLHQDWLNGKEYKCKVSNKGLPSSIEKTISKAKGQPREPQVYTLPPCQEEMTKNQVSLWCLVKGFYPSDIAVEWESNGQPENNYKTTPPVLDSDGSFFLYSRLTVDKSRWQEGNVFSCSVMHEALHNHYTQKSLSLSLGGGGSGGGGSEVQLVESGGGFVQAGESLTLSCTSSTLTFTPYRMAWYRQAPGKQRDLVADISSGDGRTTNYADFAKGRFTISRDNIKNTVFLRMTNLKPEDTAVYYCNTFVSFVGIARSWGQGTQVTVSS
chain: B2 chain with Y131C, C136S, W148S, L150A, Y189V, H217R, Y218F
light: DIVMTQSPDSLAVSLGERATINCKSSQSLLNSRTRKNYLAWYQQKPGQPPKLLIYWASTRESGVPDRFSGSGSGTDFTLTISSLQAEDVAVYYCTQSFILRTFGQGTKVEIK
notes: chains put together from parts; IgG4, kappa; not shown: kappa light chain constant domain (CL)
B4: Knob-CEA+Hole-Fab (112) (bispecific antibody, human IgG4 S228P, kappa, F234A L235A)
chain: ESKYGPPCPPCPAPEAAGGPSVFLFPPKPKDTLMISRTPEVTCVVVDVSQEDPEVQFNWYVDGVEVHNAKTKPREEQFNSTYRVVSVLTVLHQDWLNGKEYKCKVSNKGLPSSIEKTISKAKGQPREPQVYTLPPCQEEMTKNQVSLWCLVKGFYPSDIAVEWESNGQPENNYKTTPPVLDSDGSFFLYSRLTVDKSRWQEGNVFSCSVMHEALHNHYTQKSLSLSLGGGGSGGGGSEVQLVESGGGFVQAGESLTLSCTSSTLTFTPYRMAWYRQAPGKQRDLVADISSGDGRTTNYADFAKGRFTISRDNIKNTVFLRMTNLKPEDTAVYYCNTFVSFVGIARSWGQGTQVTVSS
heavy: B1 heavy
light: B1 light
notes: as for B2
B5: 312 (TA7), configuration of FIG. 1X (bispecific antibody, IgG4)
heavy: B3 heavy with Y27F, N31S, G54E, D55N, G56D, G66D, A68V, L70I, S100G, N103R
chain: B2 chain with Y131C, C136S, W148S, L150A, Y189V, H217R, Y218F
light: B3 light with P49S, A57T, E61K, T95K
notes: as for B3
B6: Fab-Knob+CEA-Hole (101) (bispecific antibody, human IgG4 S228P, kappa, F234A L235A)
heavy: EVKLLESGGGLVQPKGSLKLSCAASGFTFNTYAMNWVRQAPGKGLEWVARIRSKYNNYATYYADSVKDRFTISRDDSQSILYLQMNNLKTEDTAMYYCVRHGNFGNSYVSWFAYWGQGTLVTVSSASTKGPSVFPLAPCSRSTSESTAALGCLVKDYFPEPVTVSWNSGALTSGVHTFPAVLQSSGLYSLSSVVTVPSSSLGTKTYTCNVDHKPSNTKVDKRVESKYGPPCPPCPAPEAAGGPSVFLFPPKPKDTLMISRTPEVTCVVVDVSQEDPEVQFNWYVDGVEVHNAKTKPREEQFNSTYRVVSVLTVLHQDWLNGKEYKCKVSNKGLPSSIEKTISKAKGQPREPQVYTLPPCQEEMTKNQVSLWCLVKGFYPSDIAVEWESNGQPENNYKTTPPVLDSDGSFFLYSRLTVDKSRWQEGNVFSCSVMHEALHNHYTQKSLSLSL
chain: B1 chain with Y251C, C256S, W268S, L270A, Y309V, H337R, Y338F
light: B1 light
notes: Anti-CD3 TA1 Fab + anti-CEA VHH C17 on human IgG4 knob-into-hole Fc, kappa light chain

Molecular target: T1, human CD3 on Jurkat cells (human, UniProt P07766 23-207; P04234 22-171; P09693 23-182)
T1 construct: whole, on cells; CD3 complex as on Jurkat (Clone E6-1) cells; also called CD3 expressing cells (Jurkat)
Assay: FACS, Jurkat cells;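 also: flow cytometric binding of bispecific antibodies to Jurkat T cells, threefold serial dilutions incubated half an hour in the cold, EC50 taken from the fitted binding curve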

For B1, the EC50 was 8.88 µg/mL and 68.3 nM.
In the case of B2, the EC50 is reported as 7.6 µg/mL and 58.5 nM.
With B3 the EC50 was 1.04 µg/mL and 8.02 nM.
B4 was tested, and the EC50 was 5.32 µg/mL and 40.9 nM.
For B5, the EC50 was 0.146 µg/mL and 1.12 nM.
B6 was tested, and the EC50 was 6.28 µg/mL and 48.3 nM.

Molecular target: T2, human CD3ε/δ (ACRO systems, CDD-H52W1) (human, UniProt P07766 23-126; P04234 22-105)
T2 construct: Bought protein; also called human CD3ϵ/CD3δ; human CD3 epsilon/delta antigen
Assay: BLI, antibody captured, antigen in solution;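 also: bispecific antibodies captured on AHIC biosensors to a 1.5 nm loading signal, in PBST with 0.02% detergent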
Experimental: The bispecific antibodies were diluted to 5 ag/ml, and 1.5 nm protein was coupled to the surface of the AHIC sensor chip through 0.02% PBST.

In order of rising Kd:
1. B6  0.979 nM
2. B1  1.98 nM
3. B2  2.08 nM
4. B4  2.44 nM
5. B5  3.24 nM
6. B3  3.66 nM

In order of falling koff:
1. B3  0.00101 s⁻¹
2. B2  0.000694 s⁻¹
3. B4  0.000614 s⁻¹
4. B1  0.000565 s⁻¹
5. B5  0.000565 s⁻¹
6. B6  0.0004 s⁻¹

In order of rising kon:
1. B5  157000 M⁻¹ s⁻¹
2. B4  252000 M⁻¹ s⁻¹
3. B1  285000 M⁻¹ s⁻¹
4. B3  303000 M⁻¹ s⁻¹
5. B2  333000 M⁻¹ s⁻¹
6. B6  409000 M⁻¹ s⁻¹
